Literature values, collected in patent US20220257789A1, “ANTI-TISSUE FACTOR ANTIBODY-DRUG CONJUGATES AND RELATED METHODS” (Iconic Therapeutics, Inc., priority 2019, published 2022).
Where two headings read alike, the source gives them in different places.

Assays:
mTF = molecular target: T1, mTF (Mus musculus, UniProt P20352); conditions: binds when a KD value can be measured on a ForteBio Octet
T1 sequence (P20352 29-294): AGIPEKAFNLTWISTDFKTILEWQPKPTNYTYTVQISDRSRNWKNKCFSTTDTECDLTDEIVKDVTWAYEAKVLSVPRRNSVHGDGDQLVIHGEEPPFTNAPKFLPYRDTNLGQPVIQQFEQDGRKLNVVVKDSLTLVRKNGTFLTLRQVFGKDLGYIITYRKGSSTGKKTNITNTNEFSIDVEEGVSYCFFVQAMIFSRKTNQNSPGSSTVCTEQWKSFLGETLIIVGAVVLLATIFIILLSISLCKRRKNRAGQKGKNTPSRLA

In the case of “tisotumab vedotin: anti-TF fully human monoclonal antibody conjugated to MMAE with a protease-cleavable linker (Genmab)”, the dose limiting toxicities (6 mg/kg) is given as “grade 4 neutropenia and severe skin irritation and skin ulceration”, the toxicity (dose of 2.2 mg/kg (de Bono et al. 2019)) is given as “dose limiting toxicity (e.g., neutropenia)” and the toxicity (dose of 3 mg/kg) is given as “Neutropenia and skin toxicity”. For the same substance, the “ALT and AST” value (in vivo) was “transient ALT and AST elevations”.
In the case of “humanized 5G9: humanized 5G9 anti-TF antibody described in Ngo et al., 2007; VH SEQ ID NO: 830, VL SEQ ID NO: 831”, the “binding to mouse TF” value (mTF) is listed as “do not bind to mouse TF”.
